Measured values reported in doi:10.1101/2020.01.14.905984 (bioRxiv, 2020).

Tests used:
SEC = target: the molecule itself; assay: SEC
crystal structure = target: the molecule itself; assay: crystal structure

B1: CHUP1_611-1004 (CHUP1-C), C-terminal fragment of CHLOROPLAST UNUSUAL POSITIONING 1 (domain or fragment)
chain: ITATGDQSNESNESNEGKASENAATVTKMKLVDIEKRPPRVPRPPPRSAGGGKSTNLPSARPPLPGGGPPPPPPPPGGGPPPPPGGGPPPPPPPPGALGRGAGGGNKVHRAPELVEFYQSLMKRESKKEGAPSLISSGTGNSSAARNNMIGEIENRSTFLLAVKADVETQGDFVQSLATEVRASSFTDIEDLLAFVSWLDEELSFLVDERAVLKHFDWPEGKADALREAAFEYQDLMKLEKQVTSFVDDPNLSCEPALKKMYKLLEKVEQSVYALLRTRDMAISRYKEFGIPVDWLSDTGVVGKIKLSSVQLAKKYMKRVAYELDSVSGSDKDPNREFLLLQGVRFAFRVHQFAGGFDAESMKAFEELRSRAKTESGDNNNNNNNNSNEEESVN
- stoichiometry N (SEC): 2

B2: CHUP1_716-982, C-terminal fragment of CHUP1 (domain or fragment)
chain: NKVHRAPELVEFYQSLMKRESKKEGAPSLISSGTGNSSAARNNMIGEIENRSTFLLAVKADVETQGDFVQSLATEVRASSFTDIEDLLAFVSWLDEELSFLVDERAVLKHFDWPEGKADALREAAFEYQDLMKLEKQVTSFVDDPNLSCEPALKKMYKLLEKVEQSVYALLRTRDMAISRYKEFGIPVDWLSDTGVVGKIKLSSVQLAKKYMKRVAYELDSVSGSDKDPNREFLLLQGVRFAFRVHQFAGGFDAESMKAFEELRSRA
- binding result (crystal structure): binds
